Test [1] concerns the target T1, 15N-13C-2D triply labeled MPER 27mer (HIV-1 (HxB2)).
T1 chain: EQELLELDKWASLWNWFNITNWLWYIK
The test can be described thus: NMR chemical shift perturbation and cross-saturation transfer.

Test [2] concerns the target T2, full-length MPER segment (peptide containing the C-helical MPER region) (HIV-1 HXB2, UniProt P04578).
T2 chain: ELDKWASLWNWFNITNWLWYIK
Briefly: SPR.

The target in test [3] is trimeric ADA strain HIV-1 envelope protein GP160 (HIV-1 subtype B, isolate ADA, UniProt Q6TAN8, strain). Briefly: flow cytometry on cells.
The target in test [4] is wt MPER peptide of the alanine scan (HIV-1 HXB2, UniProt P04578). The test can be described thus: SPR. (SPR reads the build-up and loss of mass on a sensor chip optically.)
For test [5], the target named is T3, MPER peptide QQEKNEQELLELDKWASLWNWFNI (binding analysis in membrane environment) (HIV-1 HXB2).
T3 chain: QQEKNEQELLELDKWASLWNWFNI
Briefly: SPR.

As usually defined, the Kd is the equilibrium constant for the complex coming apart.

B1: 2F5 Fab, wild type (Fab, V domains shown)
VH: RITLKESGPPLVKPTQTLTLTCSFSGFSLSDFGVGVGWIRQPPGKALEWLAIIYSDDDKRYSPSLNTRLTITKDTSKNQVVLVMTRVSPVDTATYFCAHRRGPTTLFGVPIARGPVNAMDVWGQGITVTISS
VL: ALQLTQSPSSLSASVGDRITITCRASQGVTSALAWYRQKPGSPPQLLIYDASSLESGVPSRFSGSGSGTEFTLTISTLRPEDFATYYCQQLHFYPHTFGGGTRVDVR
For the molecule B1, the binding result in test [1] is given as “binds”.

B2: 2F5m F100BS monoclonal antibody (antibody, V domains shown)
VH: RITLKESGPPLVKPTQTLTLTCSFSGFSLSDFGVGVGWIRQPPGKALEWLAIIYSDDDKRYSPSLNTRLTITKDTSKNQVVLVMTRVSPVDTATYFCAHRRGPTTLSGVPIARGPVNAMDVWGQGITVTISS
VL: ALQLTQSPSSLSASVGDRITITCRASQGVTSALAWYRQKPGSPPQLLIYDASSLESGVPSRFSGSGSGTEFTLTISTLRPEDFATYYCQQLHFYPHTFGGGTRVDVR
For B2, the binding result in test [2] and in test [4] was “binds” throughout. Further, in test [3], the “% of cells stained” value is 12 % of cells stained. Further, binding in test [5] was put at a Kd of 97 nM.

B3: 2F5m L100AS F100BS monoclonal antibody (antibody, V domains shown)
VH: RITLKESGPPLVKPTQTLTLTCSFSGFSLSDFGVGVGWIRQPPGKALEWLAIIYSDDDKRYSPSLNTRLTITKDTSKNQVVLVMTRVSPVDTATYFCAHRRGPTTSSGVPIARGPVNAMDVWGQGITVTISS
VL: ALQLTQSPSSLSASVGDRITITCRASQGVTSALAWYRQKPGSPPQLLIYDASSLESGVPSRFSGSGSGTEFTLTISTLRPEDFATYYCQQLHFYPHTFGGGTRVDVR
As to B3, in test [2], the binding result is on record as “binds”. Besides, in test [3], the “% of cells stained” value is 3.9 % of cells stained. The affinity in test [5], expressed as Kd, was 476 nM.

B4: 2F5m I100FS monoclonal antibody (antibody, V domains shown)
VH: RITLKESGPPLVKPTQTLTLTCSFSGFSLSDFGVGVGWIRQPPGKALEWLAIIYSDDDKRYSPSLNTRLTITKDTSKNQVVLVMTRVSPVDTATYFCAHRRGPTTLFGVPSARGPVNAMDVWGQGITVTISS
VL: ALQLTQSPSSLSASVGDRITITCRASQGVTSALAWYRQKPGSPPQLLIYDASSLESGVPSRFSGSGSGTEFTLTISTLRPEDFATYYCQQLHFYPHTFGGGTRVDVR
In the case of B4, the binding result in test [2] and in test [4] was “binds” in each case. The “% of cells stained” value in test [3] was 20 % of cells stained. The same molecule gave a Kd in test [5] of 28 nM.

B5: 2F5 broadly neutralizing monoclonal antibody, wild type (antibody, V domains shown)
VH: RITLKESGPPLVKPTQTLTLTCSFSGFSLSDFGVGVGWIRQPPGKALEWLAIIYSDDDKRYSPSLNTRLTITKDTSKNQVVLVMTRVSPVDTATYFCAHRRGPTTLFGVPIARGPVNAMDVWGQGITVTISS
VL: ALQLTQSPSSLSASVGDRITITCRASQGVTSALAWYRQKPGSPPQLLIYDASSLESGVPSRFSGSGSGTEFTLTISTLRPEDFATYYCQQLHFYPHTFGGGTRVDVR
As for B5, the binding result in test [2] and in test [4] was “binds” in each case. The “% of cells stained” value in test [3] is 36 % of cells stained. This molecule displayed a Kd in test [5] of 3.1 nM.

The values above are taken from article PMC3253551 (Nature structural & molecular biology, 2011).
